The values below come from US20050069530A1.

Some results are limits rather than exact numbers.

Common to all, as to test: cell-based or functional assay
The target of one assay is crotoxin B, P62022.
Assay [1] addresses T1, human type IIA sPLA2 (human), P14555.
T1 chain: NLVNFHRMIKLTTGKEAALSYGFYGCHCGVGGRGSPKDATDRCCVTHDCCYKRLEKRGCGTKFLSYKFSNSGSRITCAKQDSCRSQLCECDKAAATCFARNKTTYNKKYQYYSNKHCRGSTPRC

Assay [2] has as its target T2, human recombinant cytosolic PLA2 (cPLA2) (human), P47712.
T2 chain: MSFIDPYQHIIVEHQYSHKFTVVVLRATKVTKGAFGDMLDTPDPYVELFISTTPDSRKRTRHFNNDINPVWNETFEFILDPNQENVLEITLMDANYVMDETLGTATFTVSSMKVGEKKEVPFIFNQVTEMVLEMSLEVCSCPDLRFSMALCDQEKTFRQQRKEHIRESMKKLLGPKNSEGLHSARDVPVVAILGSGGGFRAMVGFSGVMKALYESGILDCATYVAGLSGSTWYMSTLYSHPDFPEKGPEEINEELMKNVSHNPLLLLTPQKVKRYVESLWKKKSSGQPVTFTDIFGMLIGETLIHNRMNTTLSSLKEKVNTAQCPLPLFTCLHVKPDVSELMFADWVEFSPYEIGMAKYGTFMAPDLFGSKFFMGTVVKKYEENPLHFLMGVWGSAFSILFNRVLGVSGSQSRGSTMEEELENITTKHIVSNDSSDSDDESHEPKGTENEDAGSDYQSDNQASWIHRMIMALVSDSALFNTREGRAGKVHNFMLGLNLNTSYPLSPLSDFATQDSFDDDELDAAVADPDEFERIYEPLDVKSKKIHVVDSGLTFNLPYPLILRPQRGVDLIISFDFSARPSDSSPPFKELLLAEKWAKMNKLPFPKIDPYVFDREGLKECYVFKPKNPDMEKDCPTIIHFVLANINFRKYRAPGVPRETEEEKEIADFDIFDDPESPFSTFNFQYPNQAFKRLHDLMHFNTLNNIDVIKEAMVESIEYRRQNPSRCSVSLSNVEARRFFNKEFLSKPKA

YRRVDIGLRVWHDLGVG (modifications not checked) [Scrambled P-NT.II] yielded an IC50 of PLA2 enzyme inhibition (labeled E. coli membrane assay) with crotoxin B, P62022 of more than 250 µM.

Turning to LGRVDIHVWDGVYIRGR (modifications not checked) [P-NT.II], the IC50 of sPLA2 enzyme inhibition (3H-labelled E. coli membranes as substrate) in assay [1] turned out to be 5.3 µM. Besides, in assay [2], the selectivity of enzyme inhibition, sPLA2 over cPLA2 was 5 fold. Moreover, the IC50 of PLA2 enzyme inhibition (labeled E. coli membrane assay) with crotoxin B, P62022 was 4.9 µM.
